Assay results reported in the RNAGym collection of RNA variant scans (doi:10.1101/gr.219683.116).

B1: mRNA-splicing (parent)
chain: AGUUGCUGCUGGGAGCUCCAGCACAGUGAAAUGGACAGAAGGGCAGAGCAA

Variants of: B1
Assay: exon inclusion enrichment index; higher = more inclusion; WT1 exon 5 minigene, HEK293
With A45U G46A the “exon inclusion enrichment index” value was 0.0722.
For A45U G46U, the “exon inclusion enrichment index” value was 0.0239.
For A45U G46C, the “exon inclusion enrichment index” value was 0.0947.
With A40C G41A the “exon inclusion enrichment index” value was 0.0344.
With A40C G41U the “exon inclusion enrichment index” value was 0.0496.
With A40C G41C the “exon inclusion enrichment index” value was 0.92.
For A39G A40U, the “exon inclusion enrichment index” value was 0.0108.
With A39G A40G the “exon inclusion enrichment index” value was 0.0122.
In the case of A39G A40C, the “exon inclusion enrichment index” value is reported as 0.199.
For G42A, the “exon inclusion enrichment index” value was 0.734.
In the case of G42C, the “exon inclusion enrichment index” value is reported as 0.853.
With G42U the “exon inclusion enrichment index” value was 0.329.
In the case of A37U G38U, the “exon inclusion enrichment index” value is reported as 0.0123.
With A37U G38A the “exon inclusion enrichment index” value was 0.0367.
For A37U G38C, the “exon inclusion enrichment index” value was 0.0886.
For G38A, the “exon inclusion enrichment index” value was 0.0459.
For G38U, the “exon inclusion enrichment index” value was 0.029.
For G38C, the “exon inclusion enrichment index” value was 0.09.
For C44G A45U, the “exon inclusion enrichment index” value was 0.0615.
For C44G A45C, the “exon inclusion enrichment index” value was 0.399.
With C44G A45G the “exon inclusion enrichment index” value was 0.0345.
With A35G the “exon inclusion enrichment index” value was 0.0494.
With A35U the “exon inclusion enrichment index” value was 0.0139.
For A35C, the “exon inclusion enrichment index” value was 0.041.
In the case of A40C, the “exon inclusion enrichment index” value is reported as 0.557.
With A40G the “exon inclusion enrichment index” value was 0.0976.
In the case of A40U, the “exon inclusion enrichment index” value is reported as 0.156.
In the case of A45G, the “exon inclusion enrichment index” value is reported as 0.486.
With A45U the “exon inclusion enrichment index” value was 0.318.
For A45C, the “exon inclusion enrichment index” value was 0.223.
For G42A G43U, the “exon inclusion enrichment index” value was 1.63.
In the case of G42A G43C, the “exon inclusion enrichment index” value is reported as 2.4.
With G42A G43A the “exon inclusion enrichment index” value was 1.43.
In the case of A39C A40U, the “exon inclusion enrichment index” value is reported as 0.0469.
With A39C A40C the “exon inclusion enrichment index” value was 0.407.
In the case of A39C A40G, the “exon inclusion enrichment index” value is reported as 0.223.
With G46A A47U the “exon inclusion enrichment index” value was 0.185.
With G46A A47G the “exon inclusion enrichment index” value was 0.0433.
For G46A A47C, the “exon inclusion enrichment index” value was 0.547.
In the case of A39U, the “exon inclusion enrichment index” value is reported as 0.000772.
For A39C, the “exon inclusion enrichment index” value was 0.0251.
With A39G the “exon inclusion enrichment index” value was 0.074.
In the case of A37G G38C, the “exon inclusion enrichment index” value is reported as 0.249.
For A37G G38A, the “exon inclusion enrichment index” value was 0.201.
In the case of A37G G38U, the “exon inclusion enrichment index” value is reported as 0.0457.
In the case of C44A A45G, the “exon inclusion enrichment index” value is reported as 0.233.
For C44A A45C, the “exon inclusion enrichment index” value was 0.767.
With C44A A45U the “exon inclusion enrichment index” value was 0.469.
For G34A A35G, the “exon inclusion enrichment index” value was 0.0204.
For G34A A35C, the “exon inclusion enrichment index” value was 0.0806.
For G34A A35U, the “exon inclusion enrichment index” value was 0.0211.
For G43A C44G, the “exon inclusion enrichment index” value was 0.723.
For G43A C44A, the “exon inclusion enrichment index” value was 0.778.
In the case of G43A C44U, the “exon inclusion enrichment index” value is reported as 0.129.
For A37C G38U, the “exon inclusion enrichment index” value was 0.0604.
In the case of A37C G38A, the “exon inclusion enrichment index” value is reported as 0.152.
In the case of A37C G38C, the “exon inclusion enrichment index” value is reported as 0.217.
In the case of C36U A37C, the “exon inclusion enrichment index” value is reported as 0.0746.
With C36U A37G the “exon inclusion enrichment index” value was 0.156.
With C36U A37U the “exon inclusion enrichment index” value was 0.0501.
For G34U A35C, the “exon inclusion enrichment index” value was 0.0394.
For G34U A35U, the “exon inclusion enrichment index” value was 0.0144.
In the case of G34U A35G, the “exon inclusion enrichment index” value is reported as 0.142.
With G46U A47G the “exon inclusion enrichment index” value was 0.116.
In the case of G46U A47U, the “exon inclusion enrichment index” value is reported as 0.237.
For G46U A47C, the “exon inclusion enrichment index” value was 0.692.
In the case of A47U G48C, the “exon inclusion enrichment index” value is reported as 0.106.
For A47U G48A, the “exon inclusion enrichment index” value was 0.123.
In the case of G41C G42C, the “exon inclusion enrichment index” value is reported as 0.703.
With G41C G42A the “exon inclusion enrichment index” value was 0.238.
With G41C G42U the “exon inclusion enrichment index” value was 0.907.
With G46U the “exon inclusion enrichment index” value was 0.0964.
In the case of G46A, the “exon inclusion enrichment index” value is reported as 0.245.
For G46C, the “exon inclusion enrichment index” value was 0.155.
In the case of A47G G48U, the “exon inclusion enrichment index” value is reported as 0.00564.
In the case of A47G G48C, the “exon inclusion enrichment index” value is reported as 0.0501.
In the case of A47G G48A, the “exon inclusion enrichment index” value is reported as 0.0368.
In the case of G41A G42U, the “exon inclusion enrichment index” value is reported as 0.107.
For G41A G42C, the “exon inclusion enrichment index” value was 0.419.
In the case of G41A G42A, the “exon inclusion enrichment index” value is reported as 0.141.
For A39U A40U, the “exon inclusion enrichment index” value was 0.0388.
In the case of A39U A40G, the “exon inclusion enrichment index” value is reported as 0.0141.
For A39U A40C, the “exon inclusion enrichment index” value was 0.276.
With A45G G46A the “exon inclusion enrichment index” value was 0.84.
For A45G G46U, the “exon inclusion enrichment index” value was 0.121.
For A45G G46C, the “exon inclusion enrichment index” value was 0.331.
In the case of G41U, the “exon inclusion enrichment index” value is reported as 0.16.
With G41C the “exon inclusion enrichment index” value was 0.866.
For G41A, the “exon inclusion enrichment index” value was 0.0829.
With G34C A35C the “exon inclusion enrichment index” value was 0.00408.
With G34C A35U the “exon inclusion enrichment index” value was 0.0271.
In the case of G34C A35G, the “exon inclusion enrichment index” value is reported as 0.0695.
With C44A the “exon inclusion enrichment index” value was 0.507.
With C44U the “exon inclusion enrichment index” value was 0.0165.
With C44G the “exon inclusion enrichment index” value was 0.391.
For A35C C36A, the “exon inclusion enrichment index” value was 0.0616.
For A35C C36G, the “exon inclusion enrichment index” value was 0.122.
With A35C C36U the “exon inclusion enrichment index” value was 0.00835.
In the case of A45C G46U, the “exon inclusion enrichment index” value is reported as 0.0235.
For A45C G46C, the “exon inclusion enrichment index” value was 0.068.
With A45C G46A the “exon inclusion enrichment index” value was 0.0421.
With G43U C44U the “exon inclusion enrichment index” value was 0.0355.
With G43U C44G the “exon inclusion enrichment index” value was 0.0978.
In the case of G43U C44A, the “exon inclusion enrichment index” value is reported as 0.00923.
In the case of G38A A39C, the “exon inclusion enrichment index” value is reported as 0.13.
With G38A A39U the “exon inclusion enrichment index” value was 0.00515.
With G38A A39G the “exon inclusion enrichment index” value was 0.186.
With A37C the “exon inclusion enrichment index” value was 0.637.
For A37U, the “exon inclusion enrichment index” value was 0.121.
For A37G, the “exon inclusion enrichment index” value was 0.438.
With G34A the “exon inclusion enrichment index” value was 0.0592.
In the case of G34C, the “exon inclusion enrichment index” value is reported as 0.0362.
In the case of G34U, the “exon inclusion enrichment index” value is reported as 0.0244.
For C36G, the “exon inclusion enrichment index” value was 0.0745.
For C36A, the “exon inclusion enrichment index” value was 0.0939.
In the case of C36U, the “exon inclusion enrichment index” value is reported as 0.0249.
For A35U C36U, the “exon inclusion enrichment index” value was 0.000825.
For A35U C36A, the “exon inclusion enrichment index” value was 0.000875.
With A35U C36G the “exon inclusion enrichment index” value was 0.00845.
In the case of C44U A45C, the “exon inclusion enrichment index” value is reported as 0.266.
In the case of C44U A45U, the “exon inclusion enrichment index” value is reported as 0.0412.
With C44U A45G the “exon inclusion enrichment index” value was 0.0801.
In the case of G43U, the “exon inclusion enrichment index” value is reported as 0.11.
In the case of G43C, the “exon inclusion enrichment index” value is reported as 0.209.
In the case of G43A, the “exon inclusion enrichment index” value is reported as 0.774.
With A40U G41A the “exon inclusion enrichment index” value was 0.00196.
For A40U G41U, the “exon inclusion enrichment index” value was 0.0512.
With A40U G41C the “exon inclusion enrichment index” value was 0.701.
With A47C G48A the “exon inclusion enrichment index” value was 0.0773.
With A47C G48U the “exon inclusion enrichment index” value was 0.173.
For A47C G48C, the “exon inclusion enrichment index” value was 0.171.
In the case of C36A A37U, the “exon inclusion enrichment index” value is reported as 0.0531.
With C36A A37C the “exon inclusion enrichment index” value was 0.209.
For C36A A37G, the “exon inclusion enrichment index” value was 0.0199.
In the case of G41U G42C, the “exon inclusion enrichment index” value is reported as 0.49.
In the case of G41U G42A, the “exon inclusion enrichment index” value is reported as 0.0358.
With G41U G42U the “exon inclusion enrichment index” value was 0.192.
For A47U, the “exon inclusion enrichment index” value was 0.105.
In the case of A47G, the “exon inclusion enrichment index” value is reported as 0.0334.
In the case of A47C, the “exon inclusion enrichment index” value is reported as 0.293.
In the case of G42C G43U, the “exon inclusion enrichment index” value is reported as 0.634.
For G42C G43A, the “exon inclusion enrichment index” value was 0.623.
In the case of G42C G43C, the “exon inclusion enrichment index” value is reported as 0.757.
In the case of G43C C44A, the “exon inclusion enrichment index” value is reported as 0.932.
For G43C C44U, the “exon inclusion enrichment index” value was 0.086.
For G43C C44G, the “exon inclusion enrichment index” value was 1.62.
With G42U G43C the “exon inclusion enrichment index” value was 0.112.
For G42U G43A, the “exon inclusion enrichment index” value was 0.492.
In the case of G42U G43U, the “exon inclusion enrichment index” value is reported as 0.54.
In the case of G38U A39G, the “exon inclusion enrichment index” value is reported as 0.0472.
For G38U A39U, the “exon inclusion enrichment index” value was 0.000945.
In the case of G38U A39C, the “exon inclusion enrichment index” value is reported as 0.125.
In the case of G46C A47G, the “exon inclusion enrichment index” value is reported as 0.339.
For G46C A47U, the “exon inclusion enrichment index” value was 0.224.
In the case of G46C A47C, the “exon inclusion enrichment index” value is reported as 0.227.
For A35G C36U, the “exon inclusion enrichment index” value was 0.00277.
In the case of A35G C36G, the “exon inclusion enrichment index” value is reported as 0.00669.
With A35G C36A the “exon inclusion enrichment index” value was 0.0734.
With G38C A39C the “exon inclusion enrichment index” value was 0.158.
In the case of G38C A39G, the “exon inclusion enrichment index” value is reported as 0.21.
For G38C A39U, the “exon inclusion enrichment index” value was 0.00812.
In the case of C36G A37G, the “exon inclusion enrichment index” value is reported as 0.0334.
In the case of C36G A37C, the “exon inclusion enrichment index” value is reported as 0.127.
In the case of C36G A37U, the “exon inclusion enrichment index” value is reported as 0.0724.
With A40G G41C the “exon inclusion enrichment index” value was 0.927.
For A40G G41U, the “exon inclusion enrichment index” value was 0.153.
In the case of A40G G41A, the “exon inclusion enrichment index” value is reported as 0.0243.
